Data published in patent US20220249369.

Target: T1, OmpTs, DABCYL-RRSRRV-K(5-FAM)
T1 chain: RRSRRVK

B1: Outer Membrane Protease T (protein)
chain: STETLSFTPDNINADISLGTLSGKTKERVYLAEEGGRKVSQLDWKFNNAAIIKGAINWDLMPQISIGAAGWTTLGSRGGNMVDQDWMDSSNPGTWTDESRHPDTQLNYANEFDLNIKGWLLNEPNYRLGLMAGYQESRYSFTARGGSYIYSSEEGFRDDIGSFPNGERAIGYKQRFKMPYIGLTGSYRYEDFELGGTFKYSGWVESSDNDEHYDPGKRITYRSKVKDQNYYSVAVNAGYYVTPNAKVYVEGAWNRVTNKKGNTSLYDHNNNTSDYSKNGAGIENYNFITTAGLKYTF
cleavage of quenched fluorescent substrate: a substrate (RRSRRVK (SEQ ID NO:9)) specific for the E. coli surface protease OmpT
